According to the supplement of paper PMC9170038:

System: MS2 coat protein
Assay: apparent KD of MS2 coat protein; designed switch direction (-1 OFF switch, 1 ON switch): -1; higher = weaker reporter binding
Method in brief: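 The reported apparent KD is a per-design median over clusters, from curve fits of normalised cluster fluorescence. Protein titrations used SNAP-549-labelled MS2 coat protein, doubled from 0.7 or 1.5 nM to 3 µM, in Tris-HCl pH 7.5 buffer with KCl, MgCl2, BSA, DTT, tRNA and Tween-20, with no input, 200 uM small-molecule ligand, or an oligonucleotide input. The RNA switches were transcribed on Illumina chips by stalled E. coli RNA polymerase.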

[1] = input ligand: microRNA oligo, concentration not stated
[2] = Eterna round: R95, input ligand: microRNA oligo, concentration not stated
[3] = Eterna round: R95, input ligand: FMN 200 uM
[4] = Eterna round: R95, input ligand: none

| Sequence | apparent KD of MS2 coat protein (input ligand: FMN 200 uM) [nM] | apparent KD of MS2 coat protein (input ligand: none) [nM] | apparent KD of MS2 coat protein [1] [nM] | apparent KD of MS2 coat protein [2] [nM] | apparent KD of MS2 coat protein [3] [nM] | apparent KD of MS2 coat protein [4] [nM] |
| --- | --- | --- | --- | --- | --- | --- |
| CCUCAUAUUUAGGAUAUGAUUGGUAAUUAUUAGUUAGAAGGAGGUACAUGAGGAUCACCCAUGUAAAAUUUUUU [-13.7, -10.8 kcal, 32% A] (Eterna round: R97, puzzle: Exclusion 6) | 19.7 | 19.6 | – | – | – | – |
| CAGUACUGAGGAUAUACAUGAGGAUCACCCAUGUGUUCCAGCUAGGAAACUAGCGAAAGUAGAAGGCAGUACUG [salish99_ex3_r3_068] (Eterna round: R96, puzzle: Exclusion 3) | 562 | 24.6 | 19.9 | – | – | – |
| CCAGGCAGUGUGAGGAUAUGCUGGUGCUUGCAUCAGCAGAAGGCACAUGAGGAUCACCCAUGUGAAGAGCUUGG [Mat - Exclusion 4 - JL Mod - D97] (puzzle: Brourd's mod of Exclusion 4) | – | – | – | 21.1 | – | – |
| UCGCUCCGUGUAGGAUAUCGCCGUUCCACUCGGCGAGAAGGACAUGAGGAUCACCCAUGUAUGUUAUUAUCACGUGUGGCGCGC [Design 53] (Eterna round: R96, puzzle: Exclusion NG 1) | 32 | 18.1 | 16.5 | – | – | – |
| GAGAAGGUAGGAUAUACGAAUAAAUAGGGUAGUAAUAAUACACAUGAGGAUCACCCAUGUAGAAGGACCAAGAG [Mat - Exclusion 2 - Mod of my Tesla design - D39] (puzzle: Exclusion 2) | – | – | – | 22.8 | 38.1 | 25 |
| AAUAACAGAGGAUAUACUGUUUUAUGUGUUUAUUGUUUUGAACAUGAGGAUCACCCAUGUAGAAGGCUGAAUAA [JMF 25] (puzzle: Exclusion 2) | – | – | – | 20.1 | – | – |
| AUAAUGUGAGGAUAUCGAGACUACUGCUGCGGCAGUAGUCUCGAGAAGGCACAUGAGGAUCACCCAUGUGAUCA [E4/2-A3] (Eterna round: R97, puzzle: Exclusion 4) | 89.7 | 1590 | – | – | – | – |
| UCGGCGCGAGGAUAUACGGUUGCUUUUUAGGGUCGUGGCGUACAUGAGGAUCACCCAUGUAGAAGGCGCGCCGC [Apr-15 SS2-30] (puzzle: Exclusion 2) | – | – | – | 13.8 | – | – |
| AAGAAGAUCGGAGGAUAUGGAGCUGAAACGGCGCUAGAAGGCCGUCUAGUGUAACAUGAGGAUCACCCAUGUAGGGACCUCUAA [EX ng 1 4.2] (Eterna round: R96, puzzle: Exclusion NG 1) | 944 | 558 | 633 | – | – | – |
| GAUCAUGCAGGAUAUACAUGGAACAUGUAAACAUGAAUUUCACAUGAGGAUCACCCAUGUAGAAGGGCAUGAUC [Omei Ex2 A13] (Eterna round: R97, puzzle: Exclusion 2) | 314 | 2200 | – | – | – | – |
| UGUGUGUUUGUGAGGAUAUUGUGUGUGAAAGCGCGCGAGAAGGCACAUGAGGAUCACCCAUGUAAGGGCGCGCG [-26, -24 kcal, A 23%, 6bis-6] (Eterna round: R97, puzzle: Brourd's mod of Exclusion 4) | 20.2 | 23 | – | – | – | – |
| AGCUGUGGCCGAGGAUAUCUAAUAUCUCAAACCGAAAUAUAAUCGGACAUGAGGAUCACCCAUGUAGAGAAGGCGGUCUCAGCA [Eli eng2 - 064] (Eterna round: R96, puzzle: Exclusion NG 2) | – | – | 23.6 | – | – | – |
| CUUCACCCACCAGAGCUCACCCACAUACCUACUCAGGUGACAUGAGGAUCACCCAUGUUUUUUGCCCGUCUUAUCUU [Vexebedi] (Eterna round: R96, puzzle: Sensor v3, turn-off variant 2) | 34.4 | 37.5 | 174 | – | – | – |
| CUUAGACAUGAGGAUCACCCAUGUGAGGAUAUGAUGCGAUCGUCGAAAGACGAUAGCAUCAGAAGGUACAAAUG [Fiskers Ex 1 - 21] (puzzle: Exclusion 1) | – | – | – | 90.5 | – | – |
| AAUAACAGAGGAUAUACUAUUUUAUGUGUUUGUUAUUUUAAACAUGAGGAUCACCCAUGUAGAAGGCUGAUUAA [JMF 44] (Eterna round: R96, puzzle: Exclusion 2) | 47.7 | 42.7 | 34.3 | – | – | – |
| GUUAAGGUAGGAUAUACGAUAAUAGAGGGUAGAUAUAUAACACAUGAGGAUCACCCAUGUAGAAGGACCAAUUG [Mat - Exclusion 2 - Mod of my Tesla design - D58] (puzzle: Exclusion 2) | – | – | – | 41.2 | 91.3 | 36.8 |

| Sequence | apparent KD of MS2 coat protein (input ligand: FMN 200 uM) [nM] | apparent KD of MS2 coat protein (input ligand: none) [nM] | apparent KD of MS2 coat protein [1] [nM] | apparent KD of MS2 coat protein [2] [nM] | apparent KD of MS2 coat protein [3] [nM] | apparent KD of MS2 coat protein [4] [nM] |
| --- | --- | --- | --- | --- | --- | --- |
| AGUUGGCGAGGAUAUACAUGAGGAUCACCCAUGUGAAAUAUAAUAGUGAGGAAGAAAAGUAGAAGGCGCUGACA [Mat - Exclusion 3 - Mod of Salish D42] (puzzle: Exclusion 3) | – | – | – | 42.7 | – | – |
| AGUAUCUAUCAUGAGAGUGGUAGGUACAACAGGUGGGAAACAUGAGGAUCACCCAUGUCCUCAUUUGCUCGUCUUAU [Grok-var2-01] (puzzle: Sensor v3, turn-off variant 2) | – | – | – | 144 | 550 | 764 |
| AAGUACCGUCACGAUAGUGAUGGUACAACAAGCAAAUACACAUGAGGAUCACCCAUGUCCUCUUUUGCUCGUCUUGU [Sensor 3 - 0] (puzzle: Sensor v3, turn-off variant 2) | – | – | – | 236 | 674 | 767 |
| AUGGGUCCUCUCGGAGCUACAUGAGGAUCACCCAUGUGUAUUGAGGAUAUCCACUGCUCAGGACUGGAGAAGGCAGUGUACUGU [Ex NG3 #88] (Eterna round: R96, puzzle: Exclusion NG 3) | 56.2 | 59.9 | 33.5 | – | – | – |
| UUGUUCCAUGUAGGAUAUGCAUAUUCUUAUUAUGCAGAAGGACAUGAGGAUCACCCAUGUAUGUUAUUAUUAUAUGUUACAUGU [Design 1] (Eterna round: R96, puzzle: Exclusion NG 1) | – | – | 56.7 | – | – | – |
| UAUUCUAGAUAGGAUAUACUUUUUUUUUUUUUCGUAGAAGGAUCUACAUGAGGAUCACCCAUGUUUUCAGCAGU [JR_E6_Sub012] (puzzle: Exclusion 6) | – | – | – | 48.3 | – | – |
| AUUUAGCAAGUCAGAUCCUACAUGAGGAUCACCCAUGUUGUUCGUCUUAUUUGAAGACAACACAAAAGUGUUGUCUU [Omei Mir OFFv1 B5] (Eterna round: R97, puzzle: Sensor, turn-off variant 1) | 79.9 | 77 | – | – | – | – |
| GGUCUGCGAGGAUAUACAUGAGGAUCACCCAUGUGAGUGAAACUAGUGAGGUCGAUUGGUAGAAGGCGCGGACG [Mat - Exclusion 3 - Mod of JL D82] (puzzle: Exclusion 3) | – | – | – | 63 | 17.7 | 17.5 |
| UUGCAGUCGUCAGGAUAUAGUAUUACGGCCAUUUAUUUUUUCAUACAUGAGGAUCACCCAUGUCGCUAGAAGGGAUUAUCGAUU [salish99_ExNG2_r04_102] (Eterna round: R96, puzzle: Exclusion NG 2) | – | – | 38.9 | – | – | – |
| UUAUUAUAUGUAGGAUAUGCAUAUUAUUAUUAUGCAGAAGGACAUGAGGAUCACCCAUGUAUAUUGUUAUUAUAUAUUAUAUAU [Title] (Eterna round: R96, puzzle: Exclusion NG 1) | – | – | 21.7 | – | – | – |
| AAGAAGAAACAAGCUUUUUGCUCGUCUUAUAGUGACGCAACAUGAGGAUCACCCAUGUAUAGGAUGAGGGUGGAUAG [JR_SV3TOV2_Sub046] (puzzle: Sensor v3, turn-off variant 2) | – | – | – | 324 | 76.9 | 72 |
| AUCAGCUCGUCAGGAUAUGAACAUGAGGAUCACCCAUGUAAGAUCAAGCUGCUUCGGCAGCAAGUUCAGAAGGGACGAGCUGAU [ENG2/10-B3] (Eterna round: R96, puzzle: Exclusion NG 2) | 169 | 112 | 93.3 | – | – | – |
| GAUAAGGUAGGAUAUACGAAUAAAAAGGGUAGAAGAAGAACACAUGAGGAUCACCCAUGUAGAAGGACCAAGAG [Mat - Exclusion 2 - Mod of my Tesla design - D23] (puzzle: Exclusion 2) | – | – | – | 20.6 | 43 | 19.6 |
| AGUACUAUCACGAAAGUGAUAGUACAAAUAGCAAGUGAAACAUGAGGAUCACCCAUGUCCUCAUUUGCUCGUCUUAU [Mat - Sensor v2 -ver2- JL mod - D65] (Eterna round: R96, puzzle: Sensor v2, turn-off variant 2) | 12.1 | 14.3 | 409 | – | – | – |
| CUCGUGCAGCAAAGCUGUACGAGUACAUGAGGAUCACCCAUGUAGGAUAUGGUACGCUUUGCGUGCUAGAAGGACGUGUGUAUG [Mat - Exclusion NG 3 - Mod of JL - D90] (Eterna round: R96, puzzle: Exclusion NG 3) | 75.4 | 39.6 | 26.9 | – | – | – |
